T1: Mutant-2 human BCMA protein-mouse Fc (human)
T1 construct: also called mutant-2 human BCMA-mouse Fc (del32-35G); mutant-2 BCMA protein
T1 chain: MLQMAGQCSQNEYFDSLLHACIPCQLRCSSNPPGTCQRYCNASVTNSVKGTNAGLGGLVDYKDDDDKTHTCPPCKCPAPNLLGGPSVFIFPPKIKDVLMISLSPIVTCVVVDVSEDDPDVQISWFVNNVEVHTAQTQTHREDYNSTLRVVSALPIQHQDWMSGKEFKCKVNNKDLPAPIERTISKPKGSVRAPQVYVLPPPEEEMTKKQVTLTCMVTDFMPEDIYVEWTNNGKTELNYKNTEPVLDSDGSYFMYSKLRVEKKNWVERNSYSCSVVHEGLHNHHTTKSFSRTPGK

T2: Wild type human BCMA protein-mouse Fc (human)
T2 construct: also called wild type human BCMA-mouse Fc; wild type BCMA protein
T2 chain: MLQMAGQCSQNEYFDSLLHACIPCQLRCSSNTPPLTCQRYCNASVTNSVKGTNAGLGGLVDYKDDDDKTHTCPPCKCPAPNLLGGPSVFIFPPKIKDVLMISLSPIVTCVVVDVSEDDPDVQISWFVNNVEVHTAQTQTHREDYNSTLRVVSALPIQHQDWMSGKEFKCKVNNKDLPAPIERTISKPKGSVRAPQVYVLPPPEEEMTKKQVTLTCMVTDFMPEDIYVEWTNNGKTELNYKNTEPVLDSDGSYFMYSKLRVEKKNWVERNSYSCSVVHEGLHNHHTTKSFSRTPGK

T3: his-tagged human BCMA protein (ACROBiosystems, catalog # BCA-H522y-100 ug) (human, UniProt Q02223 1-54)
T3 construct: limits of the bought construct are not otherwise stated; also called recombinant his-tagged human BCMA; not shown: his tag of the bought protein
T3 sequence: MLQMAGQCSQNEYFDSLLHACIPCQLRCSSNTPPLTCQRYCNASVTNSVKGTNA

T4: his-tagged mouse BCMA protein (ACROBiosystems, catalog # BCA-M52H3) (mouse, UniProt O88472 1-49)
T4 construct: Bought protein; not shown: his tag
T4 chain (looked up): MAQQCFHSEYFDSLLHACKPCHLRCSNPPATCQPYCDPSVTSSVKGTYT


Experiments:
[1] = target: T1, Mutant-2 human BCMA protein-mouse Fc; assay: bio-layer interferometry, antibody (100 nM) loaded on AR2G sensor, BCMA-mouse Fc in solution
Experimental: (§1) The results of the protein-protein binding assays described in Example 8 were used to design an epitope mapping assay using bio-layer interferometry. Various anti-BCMA antibodies (2C5, 2E1, 4C9, 6G8, Bluebird C11D5, GSK J6M0, or isotype control) (100 nM) were loaded onto AR2G sensors and reacted with buffer or one of three types of human BCMA proteins including: including: wild type human BCMA-mouse Fc (SEQ ID NO:5), mutant-1 human BCMA-mouse Fc (double mutation 17G-18G; SEQ ID NO:6), or mutant-2 human BCMA-mouse Fc (mutation del32-35G; SEQ ID NO:7).

[2] = target: T2, Wild type human BCMA protein-mouse Fc; assay: as above
Experimental: as §1

[3] = target: T3, his-tagged human BCMA protein …; assay: SPR (Biacore T200), antibody captured on anti-human Fc, his-tagged human BCMA as analyte; fit with ka1/kd1/ka2/kd2 (model not named)
Experimental: Binding kinetics of anti-BCMA antibodies with his-tagged human BCMA protein (ACROBiosystems, catalog # BCA-H522y-100 ug, UniProt Q02223-1, SEQ ID NO:92) was measured using surface plasmon resonance (SPR). Kinetic interactions between the antibodies and his-tagged BCMA proteins were measured at 25° C. using Biacore T200 surface plasmon resonance (GE Healthcare). Anti-human fragment crystallizable region (Fc region) antibody was immobilized on a CM5 sensor chip to approximately 8000 resonance units (RU) using standard N-hydroxysuccinimide/N-Ethyl-N′-(3-dimethylaminopropyl) carbodiimide hydrochloride (NHS/EDC) coupling methodology. The anti-BCMA antibody (2 μg/mL) was captured for 60 seconds at a flow rate of 10 μL/minute. The his-tagged BCMA protein was run at […] different dilutions of 3.12, 6.25, 12.5, 25, 50, 100 and 200 nM, in a running buffer of 0.01 M HEPES pH 7.4, 0.15 M NaCl, 3 mM EDTA, 0.05% v/v Surfactant P20 (HBS-EP+). The 25 nM BCMA protein run was measured two times. All measurements were conducted in HBS-EP+ buffer with a flow rate of 30 μL/minute. […] The SPR sensorgrams of anti-BCMA antibodies BCA7, GSK J6M0, BC4C9 and BC5C4 are shown in FIGS. 1, 2, 3 and 4, respectively, and their corresponding binding kinetics are listed in Table 3.
Binding kinetics of optimized anti-BCMA antibodies BCA7-2C5, BCA7-2D11, BCA7-2G2, BCA7-2E1, BCA7-2D8 and BCA7-2E8, with his-tagged human BCMA protein (ACROBiosystems, catalog # BCA-H522y-100 ug), were analyzed in the manner as described above.

[4] = target: T3, his-tagged human BCMA protein …; assay: SPR (Biacore T200), antibody captured on anti-human Fc chip, his-tagged human BCMA as analyte
Experimental: (§2) Binding kinetics of anti-BCMA antibodies with his-tagged human BCMA protein (ACROBiosystems, catalog # BCA-H522y-100 ug, UniProt Q02223-1, SEQ ID NO:92) was measured using surface plasmon resonance (SPR). Kinetic interactions between the antibodies and his-tagged BCMA proteins were measured at 25° C. using Biacore T200 surface plasmon resonance (GE Healthcare). Anti-human fragment crystallizable region (Fc region) antibody was immobilized on a CM5 sensor chip to approximately 8000 resonance units (RU) using standard N-hydroxysuccinimide/N-Ethyl-N′-(3-dimethylaminopropyl) carbodiimide hydrochloride (NHS/EDC) coupling methodology. The anti-BCMA antibody (2 μg/mL) was captured for 60 seconds at a flow rate of 10 μL/minute. The his-tagged BCMA protein was run at […] different dilutions of 3.12, 6.25, 12.5, 25, 50, 100 and 200 nM, in a running buffer of 0.01 M HEPES pH 7.4, 0.15 M NaCl, 3 mM EDTA, 0.05% v/v Surfactant P20 (HBS-EP+). The 25 nM BCMA protein run was measured two times. All measurements were conducted in HBS-EP+ buffer with a flow rate of 30 μL/minute. A 1:1 (Langmuir) binding model was used to fit the data. […]
(§3) Cross reactivity of two of the anti-BCMA antibodies, BCA7-2C5 and BCA7-2E1, with his-tagged human, cynomolgus or mouse BCMA protein were analyzed by SPR in the manner as described above. […]

[5] = target: T4, his-tagged mouse BCMA protein …; assay: SPR (Biacore T200), antibody captured on anti-human Fc chip, his-tagged mouse BCMA as analyte
Experimental: as §2, §3

[6] = target: T5, his-tagged cynomolgus BCMA protein (ACROBiosystems, catalog # BCA-052H7) (cynomolgus, UniProt A0A2K5UD97 1-53); assay: SPR (Biacore T200), antibody captured on anti-human Fc chip, his-tagged cynomolgus BCMA as analyte
T5 construct: Bought protein; also called cyno BCMA; not shown: his tag
T5 sequence (A0A2K5UD97 entry or part of it): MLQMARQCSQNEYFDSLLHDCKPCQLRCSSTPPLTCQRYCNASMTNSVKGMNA
Experimental: as §2, §3

[7] = target: T3, his-tagged human BCMA protein …; assay: SPR (Biacore T200, 25 C), antibody captured on anti-human Fc, his-tagged human BCMA as analyte, 1:1 binding model
Experimental: Binding kinetics of anti-BCMA antibodies with his-tagged human BCMA protein (ACROBiosystems, catalog # BCA-H522y-100 ug, UniProt Q02223-1, SEQ ID NO:92) was measured using surface plasmon resonance (SPR). Kinetic interactions between the antibodies and his-tagged BCMA proteins were measured at 25° C. using Biacore T200 surface plasmon resonance (GE Healthcare). Anti-human fragment crystallizable region (Fc region) antibody was immobilized on a CM5 sensor chip to approximately 8000 resonance units (RU) using standard N-hydroxysuccinimide/N-Ethyl-N′-(3-dimethylaminopropyl) carbodiimide hydrochloride (NHS/EDC) coupling methodology. The anti-BCMA antibody (2 μg/mL) was captured for 60 seconds at a flow rate of 10 μL/minute. The his-tagged BCMA protein was run at six different dilutions of 3.12, 6.25, 12.5, 25, 50, 100 and 200 nM, in a running buffer of 0.01 M HEPES pH 7.4, 0.15 M NaCl, 3 mM EDTA, 0.05% v/v Surfactant P20 (HBS-EP+). The 25 nM BCMA protein run was measured two times. All measurements were conducted in HBS-EP+ buffer with a flow rate of 30 μL/minute. A 1:1 (Langmuir) binding model was used to fit the data. The SPR sensorgrams of anti-BCMA antibodies BCA7, GSK J6M0, BC4C9 and BC5C4 are shown in FIGS. 1, 2, 3 and 4, respectively, and their corresponding binding kinetics are listed in Table 3.

Binder	binding result [1]	binding result [2]	Kd [3]	ka1 [3]	ka2 [3]	kd1 [3]	kd2 [3]	Kd [4]	Kd [5]	Kd [6]	Kd [7]	koff [7]	kon [7]
BCA7-2E1 antibody (antibody, V domains shown, also called BCA-2E1) VH: EVQLVESGGGLVKPGGSLRLSCAASGFTSSTAWMSWVRQAPGKGLEWVGRIKSKSDGGTTDYAAPVKGRFTISRDDSKNTLFLQMNSLKTEDTAVYYCAKGGGTYGYWGQGTTVTVSS VL: QSALTQPASVSGSPGQSVTISCTGTSSDGGGHTYVSWYQQHPGKAPKLMIYDVSNRPSWVSNRFSGSKSGNTASLTISGLQAEDEADYYCGSYTSSGSYVFGTGTKLTVL	binds	binds	20.4 nM	2.51e+06 M⁻¹ s⁻¹	0.0018 s⁻¹	0.151 s⁻¹	0.000929 s⁻¹	20.4 nM	1000 nM	174 nM	–	–	–
BC4C9 antibody (antibody, V domains shown) VH: EVQLVQSGAEVKKPGASVKVSCKAFGYTFTSYDINWVRQATGQGLEWMGWMNPNSGNTGYAQKFQGRVTMTRNTSISTAYMELSSLRSEDTAVYYCASGLGEWGQGTLVTVSS VL: QSVLTQPASVSGSPGQSVTISCTGTSSDVGGYNYVSWYQQHPGKAPKLMIYDVSKRPSGVSNRFSGSKSGNTASLTISGLQAEDEADYYCISYSSSSTFYVFGTGTKVTVL	binds	binds	–	–	–	–	–	–	–	–	27.3 nM	0.000567 s⁻¹	20800 M⁻¹ s⁻¹
BCA7-2D8 antibody (antibody, V domains shown) VH: EVQLVESGGGLVKPGGSLRLSCAASGFTSSTAWMSWVRQAPGKGLEWVGRIKSKSDGGTTDYAAPVKGRFTISRDDSKNTLFLQMNSLKTEDTAVYYCAKGGGTYGYWGQGTTVTVSS VL: QSVLTQPASVSGSPGQSVTISCTGTSSSIGDSYYVSWYQQHPGKAPKLMIYDVSNRPSGVSNRFSGSKSGNTASLTISGLQAEDEADYYCGSYTSSGSYVFGTGTTLTVL	–	–	83.8 nM	2.43e+06 M⁻¹ s⁻¹	0.0113 s⁻¹	1.09 s⁻¹	0.0026 s⁻¹	–	–	–	–	–	–
BCA7-2D11 antibody (antibody, V domains shown) VH: EVQLVESGGGLVKPGGSLRLSCAASGFTSSTAWMSWVRQAPGKGLEWVGRIKSKSDGGTTDYAAPVKGRFTISRDDSKNTLFLQMNSLKTEDTAVYYCAKGGGTYGYWGQGTTVTVSS VL: SYELTQPASVSGSPGQSVTISCTGTSSVVGGHDYVSWYQQHPGKAPKLMIYDVSNRPSGVSNRFSGSKSGNTASLTISGLQAEDEADYYCGSYTSSGSYVFGTGTKVTVL	–	–	21.9 nM	1.87e+06 M⁻¹ s⁻¹	0.00381 s⁻¹	0.261 s⁻¹	0.00071 s⁻¹	–	–	–	–	–	–
BCA7-2E8 antibody (antibody, V domains shown) VH: EVQLVESGGGLVKPGGSLRLSCAASGFTSSTAWMSWVRQAPGKGLEWVGRIKSKSDGGTTDYAAPVKGRFTISRDDSKNTLFLQMNSLKTEDTAVYYCAKGGGTYGYWGQGTTVTVSS VL: QSVLTQPASVSGSPGQSVTISCTGTSSDVGGYNYVSWYQQHPGKAPKLMIYDVSNRPSGVSNRFSGSKSGNTASLTISGLQAEDEADYYCGSLRSNGDYVFGTGTTLTVL	–	–	155 nM	48700 M⁻¹ s⁻¹	0.0119 s⁻¹	0.0202 s⁻¹	0.00707 s⁻¹	–	–	–	–	–	–
BCA7-2G2 antibody (antibody, V domains shown) VH: EVQLVESGGGLVKPGGSLRLSCAASGFTSSTAWMSWVRQAPGKGLEWVGRIKSKSDGGTTDYAAPVKGRFTISRDDSKNTLFLQMNSLKTEDTAVYYCAKGGGTYGYWGQGTTVTVSS VL: QSVLTQPASVSGSPGQSVTISCTGTSSSVGGRQYVSWYQQHPGKAPKLMIYDVSNRPSGVSNRFSGSKSGNTASLTISGLQAEDEADYYCGSYTSSGSYVFGTGTKLTVL	–	–	53.7 nM	32100 M⁻¹ s⁻¹	0.00143 s⁻¹	0.00376 s⁻¹	0.00121 s⁻¹	–	–	–	–	–	–
BC5C4 antibody (antibody, V domains shown, also called CD5C4) VH: EVQLVESGGGLVQPGRSLRLSCAASGFTFDDYAMHWVRQAPGKGLEWVSGISWNSGSIGYADSVKGRFTISRDNAKNSLYLQMNSLRAEDTAVYYCATIDNVAFHSWGQGTLVTVSS VL: QSVLTQPPSASGSPGQSVTISCTGTSSDIGGYNYVSWYQQHPGKAPKLIIYEVSNRPSGVSDRFSGSKSGNTASLTISGLQAEDEADYYCSSYTDNGALVVFGGGTKLTVL	–	–	–	–	–	–	–	–	–	–	9.27 nM	0.033 s⁻¹	3.56e+06 M⁻¹ s⁻¹

Reference: patent US20210388097A1 (SORRENTO THERAPEUTICS, published 2021)
